Results: patent US20110064746A1 (published 2011)

T1: recombinant HMGB-1 (Homo sapiens (Human), UniProt P09429 1-215)
T1 construct: also called recombinant HMGB1 protein; recombinant HMGB-1 obtained from R&D system
T1 sequence: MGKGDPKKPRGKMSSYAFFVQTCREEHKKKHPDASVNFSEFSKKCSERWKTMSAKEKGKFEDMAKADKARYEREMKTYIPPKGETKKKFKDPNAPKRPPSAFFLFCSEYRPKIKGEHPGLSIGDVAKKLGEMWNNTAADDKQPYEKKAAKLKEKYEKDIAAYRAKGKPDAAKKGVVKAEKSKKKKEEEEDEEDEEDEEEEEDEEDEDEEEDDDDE


Biological target: T1, recombinant HMGB-1
Test: SPR, BIACORE3000

Binder | Kd [nM]
anti-HMGB-1 mAb 3B1 (antibody, V domains shown) VH: QVQLQQPGAELVKPGASVKLSCKASGYTFTSYWMHWVKQRPGQGLEWIGNIDPSDSETHYNQKFKDKATLTVDKSSSTAYMQLNSLTSEDSAVYYCAKRGYYGYDYWGQGTTLTV VL: DVLMTQTPLSLPVSLGDQASISCRSSQSIVHSNGNTYLEWYLQKAGQSPKLLIYKVSNRFSGVPDRFSGSGSGTDFTLKISRVEAEDLGVYYCFQGAHVPRTFGGGTKLEIK | 7.8
anti-HMGB-1 mAb 3E8 (antibody, V domains shown) VH: QVQLQQSGPELVKPGASVKISCKASGYAFSNYWMNWVKQRPGKGLEWIGRIYPGDGDMAYNGKFRGKATLTADKSSSTAYMQLSSLTSEDSAVYFCARSLDGYVGYVMDYWGQGTSVTVSS VL: DIVMTQAAPSVPVTPGESVSISCRSSKSLLHRNGNIFLYWFLQRPGQSPQLLIYRMSNLASGVPDRFSGSGSGTAFTLRISRVETEDVGVYYCMQHLEYPFTFGSGTKLEIK | 1.3
